From paper doi:10.1101/2025.03.30.646141v1 come the findings set out here.

Substrate in data set [1]: Nc1nc2c(ncn2[C@@H]2O[C@H](COP(=O)(O)OP(=O)(O)OP(=O)(O)O)[C@@H](O)[C@H]2O)c(=O)[nH]1
The experiment in a line: steady-state kinetics. In kind it is biochemical, Pseudomonas aeruginosa. Conditions: 100 µM kanamycin A, Tris buffer pH 7.5, Mg2+, 25 °C.

Substrate in data set [2]: Nc1ncnc2c1ncn2[C@@H]1O[C@H](COP(=O)(O)OP(=O)(O)OP(=O)(O)O)[C@@H](O)[C@H]1O
Put plainly: steady-state kinetics. In kind it is biochemical, Pseudomonas aeruginosa. The conditions noted are these: 100 µM kanamycin A, Tris buffer pH 7.5, Mg2+, 25 °C.

Substrate in data set [3]: NC[C@@H]1O[C@H](O[C@H]2[C@@H](O)[C@H](O[C@@H]3[C@@H](O)[C@H](N)C[C@H](N)[C@H]3O[C@H]3O[C@H](CN)[C@@H](O)[C@H](O)[C@H]3N)O[C@@H]2CO)[C@H](N)[C@@H](O)[C@@H]1O
Put plainly: purified protein. The conditions noted are these: 100 µM MgATP, Tris buffer pH 7.5, 25 °C.

Substrate in data set [4]: NC[C@@H]1O[C@H](O[C@H]2[C@@H](O)[C@H](O[C@@H]3[C@@H](O)[C@H](N)C[C@H](N)[C@H]3O[C@H]3O[C@H](CO)[C@@H](O)[C@H](O)[C@H]3N)O[C@@H]2CO)[C@H](N)[C@@H](O)[C@@H]1O
Put plainly: purified protein. The conditions noted are these: 100 µM MgATP, Tris buffer pH 7.5, 25 °C.

Substrate in data set [5]: NC[C@H]1O[C@H](O[C@H]2[C@H](O)[C@@H](O[C@H]3O[C@H](CO)[C@@H](O)[C@H](N)[C@H]3O)[C@H](N)C[C@@H]2N)[C@H](N)[C@@H](O)[C@@H]1O
Put plainly: purified protein. The conditions noted are these: 100 µM MgATP, Tris buffer pH 7.5, 25 °C.

Substrate in data set [6]: NC[C@H]1O[C@H](O[C@H]2[C@H](O)[C@@H](O[C@H]3O[C@H](CO)[C@@H](O)[C@H](N)[C@H]3O)[C@H](N)C[C@@H]2N)[C@H](O)[C@@H](O)[C@@H]1O
The experiment in a line: purified protein. The conditions noted are these: 100 µM MgATP, Tris buffer pH 7.5, 25 °C.

Substrate in data set [7]: NC[C@H]1O[C@H](O[C@H]2[C@H](O[C@@H]3O[C@H](CO)[C@@H](O)[C@H]3O)[C@@H](O)[C@H](N)C[C@@H]2N)[C@H](N)[C@@H](O)[C@@H]1O
Put plainly: purified protein. The conditions noted are these: 100 µM MgATP, Tris buffer pH 7.5, 25 °C.

B1: APH(3’)-IIb WT (Pseudomonas aeruginosa PAO1) (protein)
chain: MHDAATSMPPQAPSTWADYLAGYRWRGQGEGCSAATVHRLEAARRPTLFVKQEVLSAHAELPAEIARLRWLHGAGIDCPQVLNETQSDGRQWLLMSAVPGDTLSALAQRGELEPERLVRLVAAALRRLHDLDPAACPFDHRLERRLDTVRQRVEAGLVDEADFDDDHRGRSATELYRLLLDRRPAVEDLVVAHGDACLPNLLAEGRRFSGFIDCGRLGVADRHQDLALAARDIEAELGAAWAEAFLVEYGGDIDGERLAYFRLLDEFF
As to B1, the Michaelis-Menten constant (Km) – broadly, the concentration of substrate that gives half-maximal velocity – worked out at 320 µM in the data set “steady-state kinetics [1]”; 3 µM in the data set “steady-state kinetics [2]”; 0.27 ± 0.10 µM in “purified protein [3]”; 0.50 ± 0.10 µM in “purified protein [4]”; 0.19 ± 0.07 µM in the data set “purified protein [5]”; 0.21 ± 0.10 µM in the data set “purified protein [6]”. In addition, the Michaelis constant (Km) in the data set “purified protein [7]” is recorded as 1.17 ± 0.26 µM. Further, the kcat (as a rule, the number of substrate molecules converted per active site and unit of time at saturation) in “steady-state kinetics [1]” was 0.41 s⁻¹; in “steady-state kinetics [2]”, 0.38 s⁻¹; in the data set “purified protein [3]”, 1.98 ± 0.17 s⁻¹; in “purified protein [4]” it was 2.64 ± 0.14 s⁻¹; in the data set “purified protein [5]”, 2.13 ± 0.20 s⁻¹; in the data set “purified protein [6]” it was 0.58 ± 0.04 s⁻¹.
